Literature values in paper PMC10243098.

Biological target: histone H4 N-terminal 20-mer peptide-CoA bisubstrate inhibitor 1-20 (Homo sapiens) (UniProt P62805)

Sequence of HAT1 (O14929 2-419): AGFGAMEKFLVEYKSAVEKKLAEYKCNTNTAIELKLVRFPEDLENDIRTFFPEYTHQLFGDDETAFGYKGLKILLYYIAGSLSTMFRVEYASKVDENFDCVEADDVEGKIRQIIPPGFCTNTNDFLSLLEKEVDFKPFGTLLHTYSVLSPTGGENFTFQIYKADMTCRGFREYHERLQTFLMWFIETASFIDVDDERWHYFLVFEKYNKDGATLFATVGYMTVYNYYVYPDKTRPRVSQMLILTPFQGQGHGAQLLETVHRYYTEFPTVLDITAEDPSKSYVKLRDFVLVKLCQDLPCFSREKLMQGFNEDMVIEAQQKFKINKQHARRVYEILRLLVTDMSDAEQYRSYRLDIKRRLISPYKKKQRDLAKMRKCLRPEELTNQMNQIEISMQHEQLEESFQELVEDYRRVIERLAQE

Ki: 1 nM
Substance: HAT1 (from UniProt O14929)
